Patent publication US20240307439A1 (ARCELLX, published 2024)

Tests used:
[1] = molecular target: T1, BCMA on tumor cells (NCI-H929, U266, MM.1S, NALM6-BCMA) (Homo sapiens (Human), UniProt Q02223 1-184); assay: flow cytometry of NALM6-BCMA tumor cells flushed from femurs of mice after I.V. Adapter administration
T1 construct: also called BCMA+ tumor target
T1 sequence: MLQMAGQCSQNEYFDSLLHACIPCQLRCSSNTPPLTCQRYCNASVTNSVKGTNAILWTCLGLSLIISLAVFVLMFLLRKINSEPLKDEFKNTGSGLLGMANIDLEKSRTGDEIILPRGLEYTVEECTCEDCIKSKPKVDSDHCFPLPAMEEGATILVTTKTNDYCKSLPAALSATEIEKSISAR

BCMA-binding CAR (bc40) = molecular target: T2, BCMA-binding CAR (bc40); assay: flow cytometry, CAR-transduced Jurkat cells incubated with 0.5 µg Adapter, stained with anti-HIS PE
T2 construct: D domain CAR on Jurkat reporter cells or T cells; The entry includes signal peptide and FLAG tag; also called BCMA-specific D domain CAR; CTsp-Flag-GSlinker-bc40-GSlinker-CD8H-TM-41BB-CD3ζ

CD123-Fc = molecular target: T3, CD123-Fc (Homo sapiens (Human), UniProt P26951 19-305); assay: flow cytometry, Adapter held on af03-CAR Jurkat cells, CD123-Fc detected with Anti-Fc A488
T3 construct: not shown: Fc part not described
T3 sequence: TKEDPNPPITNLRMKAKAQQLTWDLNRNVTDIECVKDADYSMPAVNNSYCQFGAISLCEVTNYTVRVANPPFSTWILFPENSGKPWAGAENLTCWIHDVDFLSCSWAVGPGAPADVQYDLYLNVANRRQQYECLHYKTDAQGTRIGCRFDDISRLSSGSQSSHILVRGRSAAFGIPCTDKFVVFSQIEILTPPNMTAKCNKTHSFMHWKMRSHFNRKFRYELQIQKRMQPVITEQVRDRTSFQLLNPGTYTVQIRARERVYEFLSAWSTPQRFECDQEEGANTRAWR
Procedure: (§1) 10⁵ Jurkat NFAT-Luciferase transduced with an AFP (p26)-binding CAR (af03) were incubated with a total of 0.5 μg of Adapter proteins at various ratios of the BCMA- to CD123-specific Adapters (4° C. for 20 minutes), washed, and then incubated with CD123-Fc and biotinylated BCMA (0.5 μg of each) (4° C. for 20 minutes), washed, then binding detected with Anti-Fc A488 and Streptavidin-PE. FIG. 8A presents a flow cytometric analysis of CD123-binding and BCMA-binding to their respective target proteins, FIG. 8B provides a comparison of mean fluorescence intensity (MFI) of A488 MFI (CD123-binding, left axis) and PE MFI (BCMA-binding, right axis) flow cytometric data presented in FIG. 8A.
(§2) 10⁵ Jurkat NFAT-Luciferase transduced with a p26-binding CAR (af03, SEQ ID NO: 1092) were incubated with a total of […] of Adapters (SEQ ID NO: 1084, SEQ ID NO: 1085) at the indicated ratios at 4° C. for 20 minutes, washed, and then incubated with CD123-Fc and biotinylated BCMA (0.5 μg of each/(4° C. for 20 minutes), washed, then binding detected with Anti-Fc A488 and Streptavidin-PE. FIG. 8A presents a flow cytometric analysis of CD123-binding and BCMA-binding to their respective target proteins, FIG. 8B provides a comparison of mean fluorescence intensity (MFI) of A488 MFI (CD123-binding, left axis) and PE MFI (BCMA-binding, right axis) flow cytometric data presented in FIG. 8A.

biotinylated BCMA = molecular target: T4, biotinylated BCMA (Homo sapiens (Human), UniProt Q02223 1-54, biotinylated); assay: flow cytometry, Adapter held on af03-CAR Jurkat cells, biotinylated BCMA detected with Streptavidin-PE
T4 sequence: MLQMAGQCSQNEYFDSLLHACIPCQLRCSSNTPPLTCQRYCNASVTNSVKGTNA
Procedure: as §1, §2

T2 sequence (chain, as listed by the source): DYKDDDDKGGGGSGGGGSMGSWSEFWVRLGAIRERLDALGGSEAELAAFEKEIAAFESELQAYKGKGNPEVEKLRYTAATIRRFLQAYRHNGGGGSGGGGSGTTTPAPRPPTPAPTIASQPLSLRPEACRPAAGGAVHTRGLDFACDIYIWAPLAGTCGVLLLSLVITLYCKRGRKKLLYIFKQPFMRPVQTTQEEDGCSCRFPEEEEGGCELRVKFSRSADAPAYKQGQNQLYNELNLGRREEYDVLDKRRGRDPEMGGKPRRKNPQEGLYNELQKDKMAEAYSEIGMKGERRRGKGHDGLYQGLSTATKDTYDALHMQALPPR

B1: BCMA specific Adapter (bc98-p26-bc98) (designed binder)
chain: MGSWSEFWARLGAIRERLDALGGSEAELAAFEKEIAAFESELQAYKGKGNPEVEKLRYTAGTIKRFLQAYRHNGGGGDGGGGSGGGGSGLEKCFQTENPLECQDKGEEELQKYIQESQALAKRSCGLFQKLGEYYLQNAFLVAYTKKAPQLTSSELMAITRKMAATAATCCQLSEDKLLACGEGAADIIIGHLCIRHEMTPVNPGVGQCCTSSYANRRPCFSSLVVDETYVPPAFSDDKFIFHKDLCQAQGVALQTMKQEFLINLVKQKPQITEEQLEAVIADFSGLLEKCCQGQEQEVCFAEEGQKLISKTRAALGVGGGGSGGGGSGGGGSMGSWSEFWARLGAIRERLDALGGSEAELAAFEKEIAAFESELQAYKGKGNPEVEKLRYTAGTIKRFLQAYRHN
notes: also called SPRX-BCMA; sparX-BCMA
B1: binds [1].

B2: Cg06-BCMA Adapter (designed binder)
chain: DEMGSWDEFGRRLYAIEWRLYALGGSEAELAAFEKEIAAFESELQAYKGKGNPEVEKLREIAAVIRSNLQAYRHNGGGGSGGGGSGGGGSGMLQMAGQCSQNEYFDSLLHACIPCQLRCSSNTPPLTCQRYCNASVTNSVKGTNAGGGGSGGGGSGGGGSHHHHHHHHHH
notes: Soluble fusion: cg06 D domain, linker, BCMA extracellular domain, linker, HIS tag; also called CD123(cg06)-BCMS-HIS tag
B2: binds (BCMA-binding CAR (bc40)).

B3: cg06-p26 Adapter (designed binder)
chain: DEHHHHHHHHHHKLENLYFQGGGGGSMGSWDEFGRRLYAIEWRLYALGGSEAELAAFEKEIAAFESELQAYKGKGNPEVEKLREIAAVIRSNLQAYRHNGGGGSGGGGSGGGGSLEKCFQTENPLECQDKGEEELQKYIQESQALAKRSCGLFQKLGEYYLQNAFLVAYTKKAPQLTSSELMAITRKMAATAATCCQLSEDKLLACGEGAADIIIGHLCIRHEMTPVNPGVGQCCTSSYANRRPCFSSLVVDETYVPPAFSDDKFIFHKDLCQAQGVALQTMKQEFLINLVKQKPQITEEQLEAVIADFSGLLEKCCQGQEQEVCFAEEGQKLISKTRAALGV
notes: Soluble fusion: HIS tag, cg06 D domain, linker, p26; also called cg06-AFP (p26) Adapter; CD123 (cg06)-AFP (p26) Adapter
B3: binds (CD123-Fc).

B4: bc40-p26 Adapter (designed binder)
chain: DEHHHHHHHHHHKLENLYFQGGGGGSMGSWSEFWVRLGAIRERLDALGGSEAELAAFEKEIAAFESELQAYKGKGNPEVEKLRYTAATIRRFLQAYRHNGGGGSGGGGSGGGGSLEKCFQTENPLECQDKGEEELQKYIQESQALAKRSCGLFQKLGEYYLQNAFLVAYTKKAPQLTSSELMAITRKMAATAATCCQLSEDKLLACGEGAADIIIGHLCIRHEMTPVNPGVGQCCTSSYANRRPCFSSLVVDETYVPPAFSDDKFIFHKDLCQAQGVALQTMKQEFLINLVKQKPQITEEQLEAVIADFSGLLEKCCQGQEQEVCFAEEGQKLISKTRAALGV
notes: Soluble fusion: HIS tag, bc40 D domain, linker, full-length p26; also called bc40-AFP (p26) Adapter; HIS tag-BCMA(bc40)-p26
B4: binds (biotinylated BCMA).

B5: α3D-BCMA Adapter (designed binder)
chain: DEGGGGSMGSWAEFKQRLAAIKTRLQALGGSEAELAAFEKEIAAFESELQAYKGKGNPEVEALRKEAAAIRDELQAYRHNGGGGSGGGGSGGGGSGMLQMAGQCSQNEYFDSLLHACIPCQLRCSSNTPPLTCQRYCNASVTNSVKGTNAGGGGSGGGGSGGGGSHHHHHHHHHH
notes: Soluble fusion: targetless α3D domain, linker, BCMA extracellular domain, HIS tag; also called none(α3D)-BCMA-HIS tag
B5: binds (BCMA-binding CAR (bc40)).
